Results as given in publication PMC11300593.
Values belong to the substance of their own block, whether it stands above or below them.

How the values were obtained:
Assay in all cases: dynamic light scattering; DLS at 20 mg/ml, 25 °C, with and without ammonium sulfate; dimer to monomers
[1] = target: SlOPR3 variant R283E (tomato) (UniProt Q9FEW9)
[2] = target: 12-oxophytodienoate reductase 3 from tomato (SlOPR3), wild type (tomato) (UniProt Q9FEW9)
[3] = target: SlOPR3 variant Y364P (tomato) (UniProt Q9FEW9)

stoichiometry N [1]: 2
Substance: SlOPR3 variant R283E (from UniProt Q9FEW9 1-396) (enzyme)

stoichiometry N [2]: 2
Substance: 12-oxophytodienoate reductase 3 from tomato (SlOPR3), wild type (from UniProt Q9FEW9 1-396) (enzyme)

stoichiometry N [3]: 2
Substance: SlOPR3 variant Y364P (from UniProt Q9FEW9 1-396) (enzyme)
